In US20240400715A1 (VIBRANT PHARMA, published 2024):
Several values for one entry are separate records, joined by “and”; a condition that tells them apart may be missing. Equal values may be shown once.

target: T1, human CD3 on Jurkat cells (human, UniProt P07766 23-207; P04234 22-171; P09693 23-182); assay: FACS, Jurkat cells;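 also: flow cytometric binding of bispecific antibodies to Jurkat T cells, threefold serial dilutions incubated half an hour in the cold, EC50 taken from the fitted binding curve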
T1 construct: whole, on cells; CD3 complex as on Jurkat (Clone E6-1) cells; also called CD3 expressing cells (Jurkat)

| Binder | EC50 |
| --- | --- |
| 307 (TA2), configuration of FIG. 1X (bispecific antibody, IgG4, chains put together from parts; IgG4, kappa; also called CEA-CD3 bispecific antibody 307; not shown: kappa light chain constant domain (CL)) heavy: QVQLVQSGGGVVQPGRSLRLSCKASGYTFTRYTMHWVRQAPGKGLEWIGYINPSRGYTNYNQKVKDRFTISRDNSKNTAFLQMDSLRPEDTGVYFCARYYDDHYCLDYWGQGTPVTVSSASTKGPSVFPLAPCSRSTSESTAALGCLVKDYFPEPVTVSWNSGALTSGVHTFPAVLQSSGLYSLSSVVTVPSSSLGTKTYTCNVDHKPSNTKVDKRVESKYGPPCPPCPAPEAAGGPSVFLFPPKPKDTLMISRTPEVTCVVVDVSQEDPEVQFNWYVDGVEVHNAKTKPREEQFNSTYRVVSVLTVLHQDWLNGKEYKCKVSNKGLPSSIEKTISKAKGQPREPQVYTLPPCQEEMTKNQVSLWCLVKGFYPSDIAVEWESNGQPENNYKTTPPVLDSDGSFFLYSRLTVDKSRWQEGNVFSCSVMHEALHNHYTQKSLSLSLGGGGSGGGGSEVQLVESGGGFVQAGESLTLSCTSSTLTFTPYRMAWYRQAPGKQRDLVADISSGDGRTTNYADFAKGRFTISRDNIKNTVFLRMTNLKPEDTAVYYCNTFVSFVGIARSWGQGTQVTVSS ESKYGPPCPPCPAPEAAGGPSVFLFPPKPKDTLMISRTPEVTCVVVDVSQEDPEVQFNWYVDGVEVHNAKTKPREEQFNSTYRVVSVLTVLHQDWLNGKEYKCKVSNKGLPSSIEKTISKAKGQPREPQVCTLPPSQEEMTKNQVSLSCAVKGFYPSDIAVEWESNGQPENNYKTTPPVLDSDGSFFLVSRLTVDKSRWQEGNVFSCSVMHEALHNRFTQKSLSLSL light: DIQMTQSPSSLSASVGDRVTITCSASSSVSYMNWYQQTPGKAPKRWIYDTSKLASGVPSRFSGSGSGTDYTFTISSLQPEDIATYYCQQWSSNPFTFGQGTKLQIT | 2.86 µg/mL and 22 nM |
| 310 (TA5), configuration of FIG. 1X (bispecific antibody, IgG4, chains put together from parts; IgG4, kappa; also called CEA-CD3 bispecific antibody 310; not shown: kappa light chain constant domain (CL)) heavy: DVQLVQSGAEVKKPGASVKVSCKASGYTFTRYTMHWVRQAPGQGLEWIGYINPSRGYTNYADSVKGRFTITTDKSTSTAYMELSSLRSEDTATYYCARYYDDHYCLDYWGQGTTVTVSSASTKGPSVFPLAPCSRSTSESTAALGCLVKDYFPEPVTVSWNSGALTSGVHTFPAVLQSSGLYSLSSVVTVPSSSLGTKTYTCNVDHKPSNTKVDKRVESKYGPPCPPCPAPEAAGGPSVFLFPPKPKDTLMISRTPEVTCVVVDVSQEDPEVQFNWYVDGVEVHNAKTKPREEQFNSTYRVVSVLTVLHQDWLNGKEYKCKVSNKGLPSSIEKTISKAKGQPREPQVYTLPPCQEEMTKNQVSLWCLVKGFYPSDIAVEWESNGQPENNYKTTPPVLDSDGSFFLYSRLTVDKSRWQEGNVFSCSVMHEALHNHYTQKSLSLSLGGGGSGGGGSEVQLVESGGGFVQAGESLTLSCTSSTLTFTPYRMAWYRQAPGKQRDLVADISSGDGRTTNYADFAKGRFTISRDNIKNTVFLRMTNLKPEDTAVYYCNTFVSFVGIARSWGQGTQVTVSS ESKYGPPCPPCPAPEAAGGPSVFLFPPKPKDTLMISRTPEVTCVVVDVSQEDPEVQFNWYVDGVEVHNAKTKPREEQFNSTYRVVSVLTVLHQDWLNGKEYKCKVSNKGLPSSIEKTISKAKGQPREPQVCTLPPSQEEMTKNQVSLSCAVKGFYPSDIAVEWESNGQPENNYKTTPPVLDSDGSFFLVSRLTVDKSRWQEGNVFSCSVMHEALHNRFTQKSLSLSL light: DIVLTQSPATLSLSPGERATLSCRASQSVSYMNWYQQKPGKAPKRWIYDTSKVASGVPARFSGSGSGTDYSLTINSLEAEDAATYYCQQWSSNPLTFGGGTKVEIK | 0.181 µg/mL and 1.39 nM |
| 301 (TA2), configuration of FIG. 1W (bispecific antibody, IgG4, IgG4, kappa; not shown: kappa light chain constant domain (CL)) heavy: QVQLVQSGGGVVQPGRSLRLSCKASGYTFTRYTMHWVRQAPGKGLEWIGYINPSRGYTNYNQKVKDRFTISRDNSKNTAFLQMDSLRPEDTGVYFCARYYDDHYCLDYWGQGTPVTVSSASTKGPSVFPLAPCSRSTSESTAALGCLVKDYFPEPVTVSWNSGALTSGVHTFPAVLQSSGLYSLSSVVTVPSSSLGTKTYTCNVDHKPSNTKVDKRVESKYGPPCPPCPAPEAAGGPSVFLFPPKPKDTLMISRTPEVTCVVVDVSQEDPEVQFNWYVDGVEVHNAKTKPREEQFNSTYRVVSVLTVLHQDWLNGKEYKCKVSNKGLPSSIEKTISKAKGQPREPQVYTLPPCQEEMTKNQVSLWCLVKGFYPSDIAVEWESNGQPENNYKTTPPVLDSDGSFFLYSRLTVDKSRWQEGNVFSCSVMHEALHNHYTQKSLSLSL EVQLVESGGGFVQAGESLTLSCTSSTLTFTPYRMAWYRQAPGKQRDLVADISSGDGRTTNYADFAKGRFTISRDNIKNTVFLRMTNLKPEDTAVYYCNTFVSFVGIARSWGQGTQVTVSSESKYGPPCPPCPAPEAAGGPSVFLFPPKPKDTLMISRTPEVTCVVVDVSQEDPEVQFNWYVDGVEVHNAKTKPREEQFNSTYRVVSVLTVLHQDWLNGKEYKCKVSNKGLPSSIEKTISKAKGQPREPQVCTLPPSQEEMTKNQVSLSCAVKGFYPSDIAVEWESNGQPENNYKTTPPVLDSDGSFFLVSRLTVDKSRWQEGNVFSCSVMHEALHNRFTQKSLSLSL light: DIQMTQSPSSLSASVGDRVTITCSASSSVSYMNWYQQTPGKAPKRWIYDTSKLASGVPSRFSGSGSGTDYTFTISSLQPEDIATYYCQQWSSNPFTFGQGTKLQIT | 0.282 µg/mL and 2.17 nM |
| 304 (TA5), configuration of FIG. 1W (bispecific antibody, IgG4, chains put together from VH/VL, CH1, knob-Fc; IgG4, kappa; not shown: kappa light chain constant domain (CL)) heavy: DVQLVQSGAEVKKPGASVKVSCKASGYTFTRYTMHWVRQAPGQGLEWIGYINPSRGYTNYADSVKGRFTITTDKSTSTAYMELSSLRSEDTATYYCARYYDDHYCLDYWGQGTTVTVSSASTKGPSVFPLAPCSRSTSESTAALGCLVKDYFPEPVTVSWNSGALTSGVHTFPAVLQSSGLYSLSSVVTVPSSSLGTKTYTCNVDHKPSNTKVDKRVESKYGPPCPPCPAPEAAGGPSVFLFPPKPKDTLMISRTPEVTCVVVDVSQEDPEVQFNWYVDGVEVHNAKTKPREEQFNSTYRVVSVLTVLHQDWLNGKEYKCKVSNKGLPSSIEKTISKAKGQPREPQVYTLPPCQEEMTKNQVSLWCLVKGFYPSDIAVEWESNGQPENNYKTTPPVLDSDGSFFLYSRLTVDKSRWQEGNVFSCSVMHEALHNHYTQKSLSLSL EVQLVESGGGFVQAGESLTLSCTSSTLTFTPYRMAWYRQAPGKQRDLVADISSGDGRTTNYADFAKGRFTISRDNIKNTVFLRMTNLKPEDTAVYYCNTFVSFVGIARSWGQGTQVTVSSESKYGPPCPPCPAPEAAGGPSVFLFPPKPKDTLMISRTPEVTCVVVDVSQEDPEVQFNWYVDGVEVHNAKTKPREEQFNSTYRVVSVLTVLHQDWLNGKEYKCKVSNKGLPSSIEKTISKAKGQPREPQVCTLPPSQEEMTKNQVSLSCAVKGFYPSDIAVEWESNGQPENNYKTTPPVLDSDGSFFLVSRLTVDKSRWQEGNVFSCSVMHEALHNRFTQKSLSLSL light: DIVLTQSPATLSLSPGERATLSCRASQSVSYMNWYQQKPGKAPKRWIYDTSKVASGVPARFSGSGSGTDYSLTINSLEAEDAATYYCQQWSSNPLTFGGGTKVEIK | 0.101 µg/mL and 0.77 nM |
